The assay deals with ヒトEGFレセプター(細胞表面に発現) (human) (UniProt P00533). Put plainly: cell ELISA on glutaraldehyde-fixed A431 cells, compared with chimeric C225. (In general: In an ELISA, binding on a coated surface is turned into a signal by an enzyme label.)

Drawing on JP2006246896A, this text covers 相対親和力 (relative to chimeric C225) for one molecule.

B1: 再形成ヒトH225抗体(225RKA/225RHA) (antibody, V domains shown)
VH: EVQLVESGGGLVQPGGSLRLSCAVSGFSLTNYGVHWVRQATGKGLEWLGVIWSGGNTDYNTPFTSRLTISKENAKNSLYLQMNSLRAGDTAVYYCARALTYYDYEFAYWGQGTM
VL: EIVLTQSPATLSLSPGERATLSCRASQSIGTNIHWYQQRPGQAPRLLIKYASESISGIPARFSGSGSGTDFTLTISSLEPEDFAVYYCQQNNNWPTTFGGG
Molecule B1 gave a 相対親和力 (relative to chimeric C225) of 65%.
